Results as given in patent US20210238292A1 (VACCINEX, published 2021).
Like-named read-outs stand apart in the source and are kept apart here.

T1: Cynomolgus CCR8-ECD-Fc (cynomolgus monkey)
T1 construct: also called CyCCR8-ECD-Fc; Cynomolgus CCR8-Fc
T1 chain: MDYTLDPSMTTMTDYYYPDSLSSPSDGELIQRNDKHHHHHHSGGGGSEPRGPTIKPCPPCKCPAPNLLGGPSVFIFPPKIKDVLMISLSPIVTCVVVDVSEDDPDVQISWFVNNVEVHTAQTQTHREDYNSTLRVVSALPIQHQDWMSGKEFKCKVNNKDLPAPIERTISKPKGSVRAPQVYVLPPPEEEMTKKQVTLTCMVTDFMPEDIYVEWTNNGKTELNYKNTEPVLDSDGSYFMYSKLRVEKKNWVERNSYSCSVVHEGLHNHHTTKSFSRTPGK

T2: Human CCR8-ECD-Fc (human)
T2 construct: also called HuCCR8-ECD-Fc; huCC8-ECD-Fc
T2 chain: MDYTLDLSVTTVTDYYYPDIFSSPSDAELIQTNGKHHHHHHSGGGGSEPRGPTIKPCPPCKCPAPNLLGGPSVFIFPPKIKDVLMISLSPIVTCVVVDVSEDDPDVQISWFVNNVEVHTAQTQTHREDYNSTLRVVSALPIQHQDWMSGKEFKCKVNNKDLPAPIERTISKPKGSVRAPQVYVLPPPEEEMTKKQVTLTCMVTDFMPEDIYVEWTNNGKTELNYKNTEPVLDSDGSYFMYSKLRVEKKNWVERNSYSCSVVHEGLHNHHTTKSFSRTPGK

T3: mouse CCR8 expressed on 293T cells (mouse, UniProt P56484 1-353)
T3 construct: whole, on cells
T3 sequence (looked up): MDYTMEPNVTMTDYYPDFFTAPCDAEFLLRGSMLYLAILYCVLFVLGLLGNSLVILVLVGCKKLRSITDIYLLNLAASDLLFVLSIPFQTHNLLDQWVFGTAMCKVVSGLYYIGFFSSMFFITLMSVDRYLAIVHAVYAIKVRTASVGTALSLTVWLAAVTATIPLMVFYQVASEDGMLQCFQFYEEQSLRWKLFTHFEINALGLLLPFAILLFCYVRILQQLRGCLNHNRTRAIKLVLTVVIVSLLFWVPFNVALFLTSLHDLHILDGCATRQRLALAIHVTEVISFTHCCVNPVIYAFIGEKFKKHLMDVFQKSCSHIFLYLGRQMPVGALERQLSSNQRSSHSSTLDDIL


Key:
Cynomolgus CCR8-ECD-Fc [1] = biological target: T1, Cynomolgus CCR8-ECD-Fc; assay: binding to CyCCR8-ECD-huFc protein (so in the source), OD45-570nm (so in the source)
Human CCR8-ECD-Fc [2] = biological target: T2, Human CCR8-ECD-Fc; assay: binding to HuCCR8-ECD-moFc protein (so in the source), OD45-570nm (so in the source)
[3] = biological target: T4, human CCR8 (C-C chemokine receptor type 8) expressed on cells (human, UniProt P51685 1-355); assay: on-cell affinity, flow cytometry on 293T cells expressing human CCR8
T4 construct: also called HuCCR8

[4] = biological target: T3, mouse CCR8 expressed on 293T cells; assay: flow cytometry, mouseCCR8-293T cells, fold geomean over secondary alone
[5] = biological target: T5, cynomolgus monkey CCR8 expressed on cells (cynomolgus monkey, UniProt G7NYJ2 1-355); assay: on-cell affinity, flow cytometry on 293T cells expressing cyno CCR8
T5 construct: whole, on cells; also called cyno CCR8; CyCCR8

Human CCR8-ECD-Fc [6] = biological target: T2, Human CCR8-ECD-Fc; assay: binding to HuCCR8-ECD-Fc protein, OD450-570nm
[7] = biological target: T6, amyloid precursor-like protein 2 (APLP2) (UniProt Q06481 32-763, limits assumed); assay: on-cell Kd, antibody titration on cells expressing APLP2, flow cytometry
T6 construct: whole, on cells

[8] = biological target: T4, human CCR8 (C-C chemokine receptor type …); assay: flow cytometry competition on Raji-CCR8 cells; competitor: fluorescently-conjugated BIOLEGEND anti-human CCR8 antibody at a single concentration
Procedure: To characterize the binding cite of the CCR8 antibodies, CCR8 antibodies were incubated with Raji-CCR8 cells in a dose-dependent manner in 96-well plates at 4° C. for 30 min. Unbound CCR8 antibodies were washed away and the cells were incubated with a fluorescently-conjugated human monoclonal anti-CCR8 antibody (commercially available) at a single concentration for 30 min at 37° C. Upon completion of the experiment, the binding of the commercially available monoclonal CCR8 antibody was assessed by Flow Cytometry.

[9] = biological target: T4, human CCR8 (C-C chemokine receptor type …); assay: flow cytometry, HuCCR8-293T cells, fold geomean over secondary alone
[10] = biological target: T3, mouse CCR8 expressed on 293T cells; assay: flow cytometry, MoCCR8-293T cells, fold geomean over secondary alone
Human CCR8-ECD-Fc [11] = biological target: T2, Human CCR8-ECD-Fc; assay: binding to HuCCR8-ECD-moFc protein (so in the source), OD45-570nm (so in the source)
Cynomolgus CCR8-ECD-Fc [12] = biological target: T1, Cynomolgus CCR8-ECD-Fc; assay: binding to CyCCR8-ECD-huFc protein (so in the source), OD45-570nm (so in the source)
[13] = biological target: T3, mouse CCR8 expressed on 293T cells; assay: flow cytometry, mouseCCR8-293T cells, fold geomean over secondary alone; remark: listed apart in the source

T4 sequence (P51685 whole entry): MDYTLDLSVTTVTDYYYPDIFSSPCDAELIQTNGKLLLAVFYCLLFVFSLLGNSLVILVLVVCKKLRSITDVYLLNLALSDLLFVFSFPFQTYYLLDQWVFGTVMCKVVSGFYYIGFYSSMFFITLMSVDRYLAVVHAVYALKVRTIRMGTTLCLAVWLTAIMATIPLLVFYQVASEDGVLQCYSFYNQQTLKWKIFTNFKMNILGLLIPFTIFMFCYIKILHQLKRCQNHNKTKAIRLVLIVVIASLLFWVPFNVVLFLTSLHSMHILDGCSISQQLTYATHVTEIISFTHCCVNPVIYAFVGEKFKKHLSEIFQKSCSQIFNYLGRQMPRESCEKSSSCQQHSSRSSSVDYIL
T5 sequence (G7NYJ2 entry or part of it): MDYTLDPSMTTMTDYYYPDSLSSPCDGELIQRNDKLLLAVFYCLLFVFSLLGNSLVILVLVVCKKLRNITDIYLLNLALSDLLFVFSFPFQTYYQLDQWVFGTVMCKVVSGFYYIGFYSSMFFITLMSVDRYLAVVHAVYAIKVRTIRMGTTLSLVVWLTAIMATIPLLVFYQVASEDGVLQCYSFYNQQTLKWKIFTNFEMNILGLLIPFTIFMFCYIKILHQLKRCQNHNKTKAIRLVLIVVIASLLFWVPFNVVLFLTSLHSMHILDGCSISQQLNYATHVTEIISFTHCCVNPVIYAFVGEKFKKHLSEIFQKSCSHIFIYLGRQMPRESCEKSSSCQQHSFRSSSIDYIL
T6 sequence (Q06481 32-763 limits assumed): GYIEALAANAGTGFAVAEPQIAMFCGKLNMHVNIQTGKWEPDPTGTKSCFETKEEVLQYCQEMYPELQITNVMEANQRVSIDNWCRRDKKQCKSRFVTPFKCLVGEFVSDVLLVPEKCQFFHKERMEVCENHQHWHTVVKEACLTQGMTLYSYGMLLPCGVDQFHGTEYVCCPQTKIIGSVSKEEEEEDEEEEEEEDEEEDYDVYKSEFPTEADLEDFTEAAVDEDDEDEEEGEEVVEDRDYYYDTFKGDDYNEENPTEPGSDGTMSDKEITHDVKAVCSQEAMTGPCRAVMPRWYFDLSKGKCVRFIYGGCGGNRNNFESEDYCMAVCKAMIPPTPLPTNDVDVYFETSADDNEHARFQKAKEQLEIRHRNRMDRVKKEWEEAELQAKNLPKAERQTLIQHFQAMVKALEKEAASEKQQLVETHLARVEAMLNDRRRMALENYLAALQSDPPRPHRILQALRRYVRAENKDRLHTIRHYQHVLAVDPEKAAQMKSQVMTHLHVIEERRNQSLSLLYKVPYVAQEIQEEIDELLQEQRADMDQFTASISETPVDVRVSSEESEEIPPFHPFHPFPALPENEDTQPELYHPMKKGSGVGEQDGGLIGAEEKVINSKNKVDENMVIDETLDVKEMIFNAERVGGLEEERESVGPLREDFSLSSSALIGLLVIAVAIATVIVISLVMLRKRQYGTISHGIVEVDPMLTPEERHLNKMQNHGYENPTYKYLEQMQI

binding result (Cynomolgus CCR8-ECD-Fc [1]) | binding result (Human CCR8-ECD-Fc [2]) | Kd [3] [nM] | binding result [4] | Kd [5] [nM] | binding result (Human CCR8-ECD-Fc [6]) | IC50 (read off the curve) [8] [µg/mL] | EC50 (read off the curve) [9] [µg/mL] | binding result [10] | binding result (Human CCR8-ECD-Fc [11]) | binding result (Cynomolgus CCR8-ECD-Fc [12]) | binding result [13] | Binder | binding result [7]
binds | binds | 1.06 | no binding (tested: 10 ug/ml) | – | – | – | – | – | – | – | – | anti-CCR8-1-2 (antibody, V domains shown, Parental-1 heavy chain with a shuffled lambda light chain; Human IgG expressed in CHO cells) VH: QVQLVQSGAEVKKPGASVKVSCKASGYTFTSYYMHWVRQAPGQGLEWMGIINPSGGSTSYAQKFQGRVTMTRDTSTSTVYMELSSLRSEDTAVYYCARGVGNGFRFDYWGQGTLVT VL: QSALTQPASVSGSPGQSITISCTGTSGDVGSYSLVSWYQHHPSRAPKLIIYEVNKRPSGVSDRFSGSKSGNTASLTITGLQAEDEAHYFCSSYTGNINLPVVFGGGTKLTVL | –
– | – | 0.41 | – | > 50 | binds | ~0.02 | ~1 | no binding (tested: 10 ug/ml) | – | – | – | anti-CCR8-1 (antibody, human IgG1, V domains shown) VH: QVQLVQSGAEVKKPGASVKVSCKASGYTFTSYYMHWVRQAPGQGLEWMGIINPSGGSTSYAQKFQGRVTMTRDTSTSTVYMELSSLRSEDTAVYYCARAVRNRFRFDYWGQGTLVTVSS VL: QSALTQPASVSGSPGQSITISCTGTSSDVGSYNLVSWYQQHPGKAPKLMIYEVSKRPSGVSNRFSGSKSGNTASLTISGLQAEDEADYYCSSYAGSSTFVVFGGGTKLTVL | no binding (tested: 100 nM (top of the affinity axis))
– | – | 1.01 | – | 22.1 | – | – | – | – | binds | binds | no binding (tested: 10 ug/ml) | anti-CCR8-1-1 (antibody, V domains shown, Parental-1 heavy chain with a shuffled lambda light chain; Expressed from a mammalian expression vector in CHO cells as human IgG) VH: QVQLVQSGAEVKKPGASVKVSCKASGYTFTSYYMHWVRQAPGQGLEWMGIINPSGGSTSYAQKFQGRVTMTRDTSTSTVYMELSSLRSEDTAVYYCARGVGNGFRFDYWGQGTLVT VL: QSALTQPPSVSGSPGQSITISCTGTSSDVGTYNLVSWYQQHPGNAPKLMIYEVTKRPSGVSNRFSGSKSGNTATLTISGLQAEDEADYHCSSYAGSITHVVFGGGTKLTVL | –
